T1: TGFβ3 (R&D Systems)
T1 sequence (P10600 301-412, species assumed, looked up): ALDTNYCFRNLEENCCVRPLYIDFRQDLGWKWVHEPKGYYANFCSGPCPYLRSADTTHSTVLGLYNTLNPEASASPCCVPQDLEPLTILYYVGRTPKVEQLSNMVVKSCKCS

T2: TGFβ2 (R&D Systems)
T2 sequence (P61812 303-414, species assumed, looked up): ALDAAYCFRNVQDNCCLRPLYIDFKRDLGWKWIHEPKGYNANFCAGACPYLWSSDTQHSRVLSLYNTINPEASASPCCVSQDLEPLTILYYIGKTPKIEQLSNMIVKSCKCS


Assays:
[1] = molecular target: TGFβ1 (R&D Systems); assay: SPR (Biacore T200), TGFβ amine-coupled to chip, 1:1 fit
[2] = molecular target: T1, TGFβ3 (R&D Systems); assay: as above
[3] = molecular target: T2, TGFβ2 (R&D Systems); assay: as above
[4] = molecular target: TGFβ1 (R&D Systems); assay: cell-based or functional assay
[5] = molecular target: T2, TGFβ2 (R&D Systems); assay: cell-based or functional assay
[6] = molecular target: T1, TGFβ3 (R&D Systems); assay: cell-based or functional assay

TGFβ1 (R&D Systems), sequence (P01137 279-390): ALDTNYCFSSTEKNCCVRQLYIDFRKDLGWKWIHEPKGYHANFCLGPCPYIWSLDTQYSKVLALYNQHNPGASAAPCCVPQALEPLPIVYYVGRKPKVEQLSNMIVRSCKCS

| Binder | Kd [1] [nM] | Kd [2] [nM] | Kd [3] [nM] | TGFb1 IC50 (SMAD3 phosphorylation in CMVICs, AlphaLISA) [4] [µg/mL] | TGFb2 IC50 (SMAD3 phosphorylation in CMVICs, AlphaLISA) [5] [µg/mL] | TGFb3 IC50 (SMAD3 phosphorylation in CMVICs, AlphaLISA) [6] [µg/mL] |
| --- | --- | --- | --- | --- | --- | --- |
| Felinized anti-TGFβ1,2,3 antibody VH2.2 - VL3 (antibody, V domains shown) VH: QVLLVQSGADVRKPGASVKIFCKASGYTFSSNVMHWVRQTPAQGFEWMGSVIPIVDIATYARRFQGRLVLTADTSTNTAYMELRSLKSADTAVYYCARTLGLVLDAMDYWGQGSLVTVSS VL: EIQMTQSPSSLSASPGDRVTITCRASQSLGSSYLAWYQQKPGKVPKLLIYGASSRAPGVPSRFSGSGSGTDFTLTISSLEPEDAATYYCQQYADSPITFGQGTKLEIKR | 3.31 | 3.49 | 2.39 | 0.24 | 1.2 |  |
| Caninized anti-TGFβ1,2,3 antibody VH4.5 - VL1 (antibody, V domains shown) VH: EVQLVESGGDLVKPAGSLRLSCVASGYTFSSNVMSWVRQAPGKGLQWVGYVIPIVDIANYADAVKGRFTISRDNAKNTLYLQMNSLRVEDTAVYYCTRTLGLVLDAMDYWGQGTLVTVSS VL: ETVLTQSPGTLSLSPGERATLSCRASQSLGSSYLAWYQQKPGQAPRLLIYGASSRAPGIPDRFSGSGSGTDFTLTISRLEPEDFAVYYCQQYADSPITFGQGTRLEIKR | 2.57 | 0.475 | 1.56 | 0.122 | 0.609 | 0.062 |
| Caninized anti-TGFβ1,2,3 antibody VH3.6 - VL2 (antibody, V domains shown) VH: EVQLVQSAAEVKKPGASVKVSCKTSGYIFISNVISWVRQAPGQGLEWMGGVIPIVDIANYAQRFKGRVTITADESTSTTYMELSSLRSEDTAVYYCASTLGLVLDAMDYWGQGTLVTVSS VL: ETVLTQSPGTLSLSPGERATLSCRASQSLGSSYLAWYQQKPGQAPRLLIYGASSRAPGVPARFSGSGSGTDFTLTISSLEPEDFAVYYCQQYADSPITFGQGTKLEIKR | 4.39 | 1.49 | 3.42 | 0.057 | 0.459 | 0.203 |
| Caninized anti-TGFβ1,2,3 antibody VH3.5 - VL2 (antibody, V domains shown) VH: EVQLVQSAAEVKKPGASVKVSCKTSGYIFISNVISWVQQAPGAGLEWMGGVIPIVDIANYAQRFKGRVTLTADTSTNTVYMELSNLRTEDTAVYYCASTLGLVLDAMDYWGQGTLVTVSS VL: ETVLTQSPGTLSLSPGERATLSCRASQSLGSSYLAWYQQKPGQAPRLLIYGASSRAPGVPARFSGSGSGTDFTLTISSLEPEDFAVYYCQQYADSPITFGQGTKLEIKR | 4.37 | 1.91 | 3.56 | 0.083 | 9.41 | 0.981 |
| Caninized anti-TGFβ1,2,3 antibody VH4.5 - VL2 (ZTS-207) (antibody, V domains shown) VH: EVQLVESGGDLVKPAGSLRLSCVASGYTFSSNVMSWVRQAPGKGLQWVGYVIPIVDIANYADAVKGRFTISRDNAKNTLYLQMNSLRVEDTAVYYCTRTLGLVLDAMDYWGQGTLVTVSS VL: ETVLTQSPGTLSLSPGERATLSCRASQSLGSSYLAWYQQKPGQAPRLLIYGASSRAPGVPARFSGSGSGTDFTLTISSLEPEDFAVYYCQQYADSPITFGQGTKLEIKR | 2.3 | 0.43 | 1.4 | 0.06 | 0.285 | 0.02 |
| Caninized anti-TGFβ1,2,3 antibody VH3.1 - VL2 (ZTS-122) (antibody, V domains shown) VH: DVQLVESGGDLVKPGGSLRLTCVASGYTFSSNVMHWVRQAPGKGLQWVAYVIPIVDIAYYADSVKGRFTISIDNSKNTLYLQMNSLKTEDTATYYCARTLGLVLDAMDYWGQGTLVTVSS VL: ETVLTQSPGTLSLSPGERATLSCRASQSLGSSYLAWYQQKPGQAPRLLIYGASSRAPGVPARFSGSGSGTDFTLTISSLEPEDFAVYYCQQYADSPITFGQGTKLEIKR | 5.6 | 1.12 | 3.37 | 0.061 | 0.508 | 0.092 |
| Felinized anti-TGFβ1,2,3 antibody VH2.8 - VL6 (antibody, V domains shown) VH: QVQLVQSGAEVKKPGSSVKVSCKASGYTFSSNVISWVRQTPAQGFEWMGGVIPIVDIANYAQRFKGRLVLTADTSTNTAYMELRSLKSADTAVYYCASTLGLVLDAMDYWGQGTLVTVSS VL: QSVLTQPPSVSGSLGQRVTISCRASQSLGSSYLAWYQQVPGRAPRLLIYGASSRAPGIPDRFSGSKSGTSGSLTITGLEADDEADYYCQQYADSPITFGGGTHLTVLG | 2.95 | 2.41 | 1.72 | 0.969 | 0.547 |  |
| Caninized anti-TGFβ1,2,3 antibody VH4.11 - VL3 (antibody, V domains shown) VH: QVQLVQSGAEVKKPGSSVKVSCKASGYTFSSNVISWVRQAPGKGLQWVGGVIPIVDIANYAQRFKGRVTLTADTSTNTVYMELSNLRTEDTAVYYCARTLGLVLDAMDYWGQGTLVTVSS VL: EIVMTQSPASLSLSQEEKVTITCRASQSLGSSYLAWYQQKPGQAPKLLIYGASSRAPGVPSRFSGSGSGTDFSFTISSLEPEDVAVYYCQQYADSPITFGQGTKLEIKR | 7.14 | 2.5 | 5.15 | 1.01 | 16.7 | 0.575 |
| Caninized anti-TGFβ1,2,3 antibody VH5.10 - VL3 (antibody, V domains shown) VH: EVQLVESGGDLVKPGGSLRLSCVASGFTFSSNVISWVRQAPGQGLEWMGGVIPIVDIANYAQRFKGRVTLTADTSTNTVYMELSNLRTEDTAVYYCARTLGLVLDAMDYWGQGTLVTVSS VL: EIVMTQSPASLSLSQEEKVTITCRASQSLGSSYLAWYQQKPGQAPKLLIYGASSRAPGVPSRFSGSGSGTDFSFTISSLEPEDVAVYYCQQYADSPITFGQGTKLEIKR | 5.23 | 1.5 | 3.57 | 0.232 | 5.47 | 0.113 |
| Caninized anti-TGFβ1,2,3 antibody VH4.7 - VL2 (antibody, V domains shown) VH: QVQLVQSGAEVKKPGSSVKVSCKASGYTFSSNVISWVRQAPGKGLQWVGGVIPIVDIANYAQRFKGRVTITADESTSTTYMELSSLRSEDTAVYYCASTLGLVLDAMDYWGQGTLVTVSS VL: ETVLTQSPGTLSLSPGERATLSCRASQSLGSSYLAWYQQKPGQAPRLLIYGASSRAPGVPARFSGSGSGTDFTLTISSLEPEDFAVYYCQQYADSPITFGQGTKLEIKR | 2.61 | 1.2 | 1.99 | 0.071 | 0.81 |  |
| Caninized anti-TGFβ1,2,3 antibody VH4.11 - VL2 (antibody, V domains shown) VH: QVQLVQSGAEVKKPGSSVKVSCKASGYTFSSNVISWVRQAPGKGLQWVGGVIPIVDIANYAQRFKGRVTLTADTSTNTVYMELSNLRTEDTAVYYCARTLGLVLDAMDYWGQGTLVTVSS VL: ETVLTQSPGTLSLSPGERATLSCRASQSLGSSYLAWYQQKPGQAPRLLIYGASSRAPGVPARFSGSGSGTDFTLTISSLEPEDFAVYYCQQYADSPITFGQGTKLEIKR | 4.98 | 2.1 | 3.77 | 0.164 | 8.48 | 0.375 |
